According to publication PMC5511251, “The A2V mutation as a new tool for hindering Aβ aggregation: A neutron and x-ray diffraction study” (Scientific Reports, 2017):

Molecular target: T1, Aβ1-28 wild type (human)
T1 construct: amyloid-β (Aβ) residues 1-28, cut from the amyloid β precursor protein (APP); numbers count on: the Aβ peptide (position 2 of Aβ is position 673 of APP); Assembles into fibrils; also called Aβ1-28WT; WT; source: synthetic peptide (Fmoc solid-phase synthesis, purified by reverse-phase HPLC, purity >95%)
Assay: neutron diffraction + other: synchrotron X-ray fibre diffraction; peptides or their mixtures dissolved in ddH2O at 10 mg/mL, dried four days at ambient temperature on quartz in a 7 T static magnetic field, re-humidified against 100% D2O for about 14 days; small- and wide-angle patterns
Conditions: both partners purified

binding result: binds
B1: Aβ1-28A2V (peptide)
peptide: DVEFRHDSGYEVHHQKLVFFAEDVGSNK
notes: amyloid-β (Aβ) residues 1-28 with the naturally occurring A-to-V substitution at position 2 of Aβ (A673V in APP); numbers count on: the Aβ peptide (position 2 of Aβ is position 673 of APP); also called mutated peptide Aβ1-28A2V; source: synthetic peptide (Fmoc solid-phase synthesis, purified by reverse-phase HPLC, purity >95%)
